Reference: the supplement of paper PMC10065799, “High-throughput profiling of sequence recognition by tyrosine kinases and SH2 domains using bacterial peptide display” (eLife, 2023)

How the values were obtained:
FGFR1 = FGFR1 (UniProt P11362); experiment: phosphorylation enrichment, bacterial display (enrichment ratio); higher = better substrate or ligand; peptides without Tyr show the background
EPHB1 = EPHB1 (UniProt P54762); experiment: as above
AncSZ = experiment: as above
MERTK = MERTK (UniProt Q12866); experiment: as above
Fyn = Fyn (UniProt P06241); experiment: as above
Fes = Fes (UniProt P07332); experiment: as above
c-Abl (mouse) = experiment: as above
Hck = Hck (UniProt P08631); experiment: as above
Jak2 = Jak2 (UniProt O60674); experiment: as above
EPHB2 = EPHB2 (UniProt P29323); experiment: as above
Fer (mouse) = experiment: as above
c-Src = experiment: as above
FGFR3 = FGFR3 (UniProt P22607); experiment: as above
c-Src SH2 = experiment: SH2 binding enrichment of the phosphorylated peptide, bacterial display (enrichment ratio); higher = better substrate or ligand; peptides without Tyr show the background
SHP2-C SH2 = experiment: as above
Grb2 SH2 = Grb2 SH2 (UniProt P62993); experiment: as above
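Wherever SH2 binding enrichment of the phosphorylated peptide, bacterial display is given: peptide library displayed on the E. coli surface as eCPX fusions, selected cells deep-sequenced, score is each peptide's frequency after selection divided by its frequency in the input.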
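Wherever phosphorylation enrichment, bacterial display is given: 11-residue human phosphosite peptides and single-mutation variants displayed on the E. coli surface, counted by deep sequencing, each peptide's frequency after selection divided by its frequency in the unselected input library; frequency after pTyr selection over input frequency; kinase dosed for 20-30% of maximal phosphorylation in three min.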

Sequence of EPHB2 (P29323 whole entry, looked up): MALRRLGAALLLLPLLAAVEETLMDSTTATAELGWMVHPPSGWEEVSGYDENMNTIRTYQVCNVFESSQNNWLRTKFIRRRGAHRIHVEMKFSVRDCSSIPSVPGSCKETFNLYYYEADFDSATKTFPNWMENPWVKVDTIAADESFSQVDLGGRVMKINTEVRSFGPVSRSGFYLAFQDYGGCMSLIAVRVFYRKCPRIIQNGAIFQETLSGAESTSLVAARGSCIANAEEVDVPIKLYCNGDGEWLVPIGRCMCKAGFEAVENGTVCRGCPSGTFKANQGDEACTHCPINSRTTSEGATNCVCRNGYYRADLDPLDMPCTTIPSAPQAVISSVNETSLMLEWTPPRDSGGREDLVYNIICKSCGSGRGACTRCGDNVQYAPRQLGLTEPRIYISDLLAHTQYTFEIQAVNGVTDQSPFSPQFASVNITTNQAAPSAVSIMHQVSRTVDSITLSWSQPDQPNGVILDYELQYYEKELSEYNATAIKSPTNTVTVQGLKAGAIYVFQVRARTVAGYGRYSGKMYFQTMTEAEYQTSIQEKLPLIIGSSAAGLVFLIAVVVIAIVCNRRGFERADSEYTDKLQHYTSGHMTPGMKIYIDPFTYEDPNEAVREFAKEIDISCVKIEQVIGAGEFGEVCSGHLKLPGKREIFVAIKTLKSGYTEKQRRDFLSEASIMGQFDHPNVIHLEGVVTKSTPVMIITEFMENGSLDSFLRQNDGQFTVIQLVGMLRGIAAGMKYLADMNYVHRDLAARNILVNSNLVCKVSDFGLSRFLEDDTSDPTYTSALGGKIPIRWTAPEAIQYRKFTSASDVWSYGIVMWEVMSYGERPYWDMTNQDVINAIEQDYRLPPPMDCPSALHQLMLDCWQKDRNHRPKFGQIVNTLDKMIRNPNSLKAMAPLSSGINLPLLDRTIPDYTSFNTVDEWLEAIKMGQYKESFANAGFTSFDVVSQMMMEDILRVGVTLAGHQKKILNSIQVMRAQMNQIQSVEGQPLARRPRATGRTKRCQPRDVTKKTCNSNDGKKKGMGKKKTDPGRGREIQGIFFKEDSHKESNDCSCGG
Sequence of MERTK (Q12866 whole entry, looked up): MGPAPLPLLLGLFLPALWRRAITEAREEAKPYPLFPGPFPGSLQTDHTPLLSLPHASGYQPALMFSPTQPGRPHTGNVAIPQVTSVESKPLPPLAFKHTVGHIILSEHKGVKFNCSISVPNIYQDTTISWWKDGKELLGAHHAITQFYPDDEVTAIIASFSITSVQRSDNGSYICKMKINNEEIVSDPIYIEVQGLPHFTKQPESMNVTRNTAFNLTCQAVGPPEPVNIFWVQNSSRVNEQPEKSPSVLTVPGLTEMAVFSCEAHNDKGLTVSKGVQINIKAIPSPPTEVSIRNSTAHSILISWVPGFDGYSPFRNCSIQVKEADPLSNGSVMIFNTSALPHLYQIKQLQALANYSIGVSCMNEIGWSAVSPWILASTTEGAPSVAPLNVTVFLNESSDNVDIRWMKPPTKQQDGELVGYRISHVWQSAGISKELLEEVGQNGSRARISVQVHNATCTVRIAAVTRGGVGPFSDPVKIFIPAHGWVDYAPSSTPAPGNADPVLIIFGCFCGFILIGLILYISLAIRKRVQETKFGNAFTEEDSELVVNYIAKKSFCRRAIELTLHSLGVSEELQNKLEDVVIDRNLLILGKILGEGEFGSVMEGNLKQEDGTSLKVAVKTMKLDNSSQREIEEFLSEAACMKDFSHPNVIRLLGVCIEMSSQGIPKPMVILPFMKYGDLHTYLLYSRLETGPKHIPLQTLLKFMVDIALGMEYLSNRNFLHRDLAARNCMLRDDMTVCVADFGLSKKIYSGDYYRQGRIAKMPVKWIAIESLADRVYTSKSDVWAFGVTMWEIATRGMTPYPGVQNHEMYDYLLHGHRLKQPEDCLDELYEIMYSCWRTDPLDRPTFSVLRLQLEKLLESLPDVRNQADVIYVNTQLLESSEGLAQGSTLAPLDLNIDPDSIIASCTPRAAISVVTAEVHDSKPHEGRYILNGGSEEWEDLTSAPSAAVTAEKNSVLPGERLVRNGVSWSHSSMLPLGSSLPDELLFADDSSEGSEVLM
Sequence of Jak2 (O60674 whole entry, looked up): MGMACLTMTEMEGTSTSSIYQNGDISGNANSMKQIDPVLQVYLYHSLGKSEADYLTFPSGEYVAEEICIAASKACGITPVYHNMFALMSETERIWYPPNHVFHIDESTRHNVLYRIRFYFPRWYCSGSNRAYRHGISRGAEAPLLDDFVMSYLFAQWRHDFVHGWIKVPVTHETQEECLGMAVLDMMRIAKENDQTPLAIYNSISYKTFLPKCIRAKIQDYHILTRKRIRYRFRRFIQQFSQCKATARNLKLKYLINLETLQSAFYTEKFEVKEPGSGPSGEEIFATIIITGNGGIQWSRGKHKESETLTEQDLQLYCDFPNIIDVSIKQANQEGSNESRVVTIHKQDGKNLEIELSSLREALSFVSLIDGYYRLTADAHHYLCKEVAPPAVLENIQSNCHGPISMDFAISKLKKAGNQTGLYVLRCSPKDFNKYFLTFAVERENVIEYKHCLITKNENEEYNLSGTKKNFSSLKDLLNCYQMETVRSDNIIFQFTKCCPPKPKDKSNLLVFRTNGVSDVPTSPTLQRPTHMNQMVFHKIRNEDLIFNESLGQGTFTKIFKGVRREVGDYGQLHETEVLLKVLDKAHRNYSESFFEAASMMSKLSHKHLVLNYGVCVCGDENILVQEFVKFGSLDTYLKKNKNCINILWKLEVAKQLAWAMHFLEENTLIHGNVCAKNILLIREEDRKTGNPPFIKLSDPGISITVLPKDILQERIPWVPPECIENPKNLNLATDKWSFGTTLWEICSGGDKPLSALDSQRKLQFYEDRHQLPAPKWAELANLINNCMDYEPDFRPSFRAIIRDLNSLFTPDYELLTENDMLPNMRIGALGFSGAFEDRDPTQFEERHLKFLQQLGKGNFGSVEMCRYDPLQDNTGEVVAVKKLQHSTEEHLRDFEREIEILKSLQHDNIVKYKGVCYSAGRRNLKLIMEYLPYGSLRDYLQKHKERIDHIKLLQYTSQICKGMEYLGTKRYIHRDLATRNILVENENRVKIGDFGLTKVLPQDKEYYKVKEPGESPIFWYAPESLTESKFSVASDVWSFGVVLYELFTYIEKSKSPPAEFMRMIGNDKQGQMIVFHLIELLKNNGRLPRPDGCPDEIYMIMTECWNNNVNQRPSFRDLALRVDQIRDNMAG
Sequence of EPHB1 (P54762 whole entry, looked up): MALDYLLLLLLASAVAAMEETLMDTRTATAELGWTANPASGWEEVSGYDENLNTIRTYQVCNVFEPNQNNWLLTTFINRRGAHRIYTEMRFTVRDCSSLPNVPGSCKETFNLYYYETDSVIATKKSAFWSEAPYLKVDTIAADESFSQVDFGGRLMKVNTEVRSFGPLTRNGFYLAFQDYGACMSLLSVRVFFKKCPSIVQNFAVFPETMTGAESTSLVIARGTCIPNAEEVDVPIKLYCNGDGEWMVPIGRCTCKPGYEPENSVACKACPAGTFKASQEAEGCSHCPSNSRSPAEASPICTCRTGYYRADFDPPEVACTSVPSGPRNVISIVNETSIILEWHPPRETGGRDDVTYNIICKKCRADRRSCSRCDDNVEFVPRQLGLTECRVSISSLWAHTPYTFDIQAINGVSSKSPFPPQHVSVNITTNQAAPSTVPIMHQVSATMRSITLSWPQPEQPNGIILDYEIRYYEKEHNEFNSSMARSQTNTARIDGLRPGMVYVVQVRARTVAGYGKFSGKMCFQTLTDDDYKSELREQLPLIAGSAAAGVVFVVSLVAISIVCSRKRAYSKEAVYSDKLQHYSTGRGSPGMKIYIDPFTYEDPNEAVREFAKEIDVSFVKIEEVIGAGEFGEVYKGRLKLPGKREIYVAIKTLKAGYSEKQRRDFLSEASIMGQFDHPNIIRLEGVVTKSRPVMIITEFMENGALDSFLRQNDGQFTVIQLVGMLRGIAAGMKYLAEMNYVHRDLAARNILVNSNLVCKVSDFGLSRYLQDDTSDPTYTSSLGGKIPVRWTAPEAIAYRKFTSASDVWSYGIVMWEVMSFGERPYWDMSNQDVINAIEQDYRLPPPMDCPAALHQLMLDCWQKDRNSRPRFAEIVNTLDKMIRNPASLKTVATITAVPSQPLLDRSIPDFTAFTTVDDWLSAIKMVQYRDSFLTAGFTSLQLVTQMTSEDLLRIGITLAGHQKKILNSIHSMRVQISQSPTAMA
Sequence of Fyn (P06241 whole entry, looked up): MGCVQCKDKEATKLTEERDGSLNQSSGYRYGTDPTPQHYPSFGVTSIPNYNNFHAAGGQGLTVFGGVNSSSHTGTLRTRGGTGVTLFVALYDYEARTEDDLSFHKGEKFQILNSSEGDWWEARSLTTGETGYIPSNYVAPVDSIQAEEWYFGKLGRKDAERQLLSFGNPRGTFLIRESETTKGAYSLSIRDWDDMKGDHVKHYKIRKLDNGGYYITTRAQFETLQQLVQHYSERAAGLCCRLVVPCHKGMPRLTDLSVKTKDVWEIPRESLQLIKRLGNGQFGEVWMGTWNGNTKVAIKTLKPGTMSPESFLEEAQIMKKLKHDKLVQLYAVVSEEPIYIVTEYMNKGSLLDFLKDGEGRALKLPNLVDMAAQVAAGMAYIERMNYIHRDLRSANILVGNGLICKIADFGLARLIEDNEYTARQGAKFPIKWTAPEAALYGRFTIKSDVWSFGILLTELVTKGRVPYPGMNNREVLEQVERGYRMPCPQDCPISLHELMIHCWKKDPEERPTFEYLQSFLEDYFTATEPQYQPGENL
Sequence of Grb2 SH2 (P62993 whole entry, looked up, the tested form may be a part): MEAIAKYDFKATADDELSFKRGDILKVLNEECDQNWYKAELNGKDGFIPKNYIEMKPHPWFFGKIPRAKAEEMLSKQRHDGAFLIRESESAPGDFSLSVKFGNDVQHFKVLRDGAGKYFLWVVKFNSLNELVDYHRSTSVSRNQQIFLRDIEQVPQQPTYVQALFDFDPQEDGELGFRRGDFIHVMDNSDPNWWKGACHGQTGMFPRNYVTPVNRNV

Sequence	phosphorylation enrichment (FGFR1)	phosphorylation enrichment (EPHB1)	phosphorylation enrichment (AncSZ)	phosphorylation enrichment (MERTK)	phosphorylation enrichment (Fyn)	phosphorylation enrichment (Fes)	phosphorylation enrichment (c-Abl (mouse))	phosphorylation enrichment (Hck)	phosphorylation enrichment (Jak2)	phosphorylation enrichment (EPHB2)	phosphorylation enrichment (Fer (mouse))	phosphorylation enrichment (c-Src)	phosphorylation enrichment (FGFR3)	SH2 binding enrichment (c-Src SH2)	SH2 binding enrichment (SHP2-C SH2)	SH2 binding enrichment (Grb2 SH2)
HRGCLYLAIEY [TEK_Y899_Y897C]	0.827	1.01	1.86	0.691	0.695	2.3	1.49	1.05	1.88	1.17	0.868	0.936	1.31	0.423	0.564	1.04
LLVVVYKFRCF [PSEN1_Y154_L153V_YF]	0.446	0.446	0.949	0.463	0.359	1.3	1.19	0.462	0.707	0.45	0.471	0.455	0.676	1.41	1.64	1.96
FFSSEYHCVGG [CTSC_Y345_Y347C_YF]	7.57	2.37	2.38	0.651	1.58	1.17	1.88	1.66	1.08	2.15	0.545	2.1	4.98	0.709	0.8	0.87
RLDRSYSFSFS [PEAR1_Y890_YF]	0.738	0.783	1.06	0.62	0.702	0.984	0.593	0.791	0.816	0.48	0.809	0.575	0.607	0.544	0.677	0.75
EYFDGYWEYSV [ITGA2B_Y265_G267E]	13.8	2.02	4.06	2	5.41	1.72	1.54	4.33	5.73	3.58	1.22	6.02	12	0.465	0.758	0.876
EVQKDYEHLFK [PAM16_Y77_N76D]	0.498	0.511	0.885	0.462	0.478	0.804	0.62	0.514	0.71	0.525	0.421	0.491	0.582	0.592	0.662	0.805
LEQDEYALRSH [HADHB_Y244]	0.891	1.01	1.98	0.724	0.793	1.75	1.9	1.08	2.54	1.69	0.669	0.96	1.08	0.504	0.576	0.755
CSHKFYGKQCC [ADAMTS16_Y1211]	0.391	0.498	0.607	0.396	0.346	0.673	0.505	0.415	0.513	0.477	0.448	0.268	0.499	0.765	1.01	1.04
KPSLKYVTYGN [GALNTL5_Y404_G401S]	0.4	0.334	0.577	0.348	0.379	0.65	0.408	0.462	0.443	0.349	0.417	0.387	0.516	0.836	0.985	1.09
FEHVGYTTLNR [CHN1_Y148_YF]	0.426	0.393	0.654	0.406	0.448	0.805	0.68	0.602	0.527	0.395	0.445	0.466	0.458	5.21	18.8	0.917
ADARMYGVHPW [PLP1_Y207_L210H]	0.38	0.458	0.604	0.391	4.81	0.726	0.53	2.42	0.521	0.493	0.355	3.64	0.481	0.465	0.477	0.653
EMQAAYQKVVA [HBD_Y131_Q126E]	0.405	0.393	0.614	0.399	0.472	0.656	0.421	0.535	0.581	0.42	0.446	0.391	0.574	0.65	0.498	0.688
APGDAYGDAGY [SYP_Y250]	0.494	0.541	0.891	0.442	0.413	0.871	0.616	0.463	0.765	0.662	0.512	0.405	0.615	0.464	0.616	0.815
FEKFLYFLPAS [DYNC2H1_Y346_H341Y_YF]	0.474	0.8	1.5	1.95	0.733	1.48	0.896	0.884	2.67	0.735	0.55	0.76	0.852	0.544	0.759	0.84
YLENYYDLEKD [MMP3_Y42_K45E]	7.06	5.81	1.76	0.752	4.51	1.47	0.957	1.63	1.15	3.24	0.781	2.29	5.26	0.985	0.557	0.769
VHNLDYYKETT [FGFR3_Y647_K650E]	0.789	0.452	0.903	0.39	0.421	0.824	0.577	0.456	0.714	0.497	0.439	0.367	0.769	0.564	0.585	0.702
ADKSAYLMGLN [MYH7_Y386]	0.526	0.405	0.625	0.502	0.543	0.671	0.467	0.524	0.67	0.465	0.549	0.535	0.579	0.467	0.793	0.88

Sequence	phosphorylation enrichment (FGFR1)	phosphorylation enrichment (EPHB1)	phosphorylation enrichment (AncSZ)	phosphorylation enrichment (MERTK)	phosphorylation enrichment (Fyn)	phosphorylation enrichment (Fes)	phosphorylation enrichment (c-Abl (mouse))	phosphorylation enrichment (Hck)	phosphorylation enrichment (Jak2)	phosphorylation enrichment (EPHB2)	phosphorylation enrichment (Fer (mouse))	phosphorylation enrichment (c-Src)	phosphorylation enrichment (FGFR3)	SH2 binding enrichment (c-Src SH2)	SH2 binding enrichment (SHP2-C SH2)	SH2 binding enrichment (Grb2 SH2)
CLMILHRLKER [PTPRR_Y249_Y249H]	0.436	0.496	1.05	0.437	0.464	1.19	0.548	0.426	1.03	0.569	0.516	0.395	0.575	0.799	1.35	1.04
KKRSVYLKVLF [CC2D2A_Y683]	0.494	0.453	1.01	0.361	0.446	1.19	0.706	0.401	0.897	0.543	0.478	0.391	0.721	0.679	0.983	0.869
RSSGSYGGGGQ [HNRNPA1_Y341_P340S]	0.536	1.5	0.492	0.415	0.539	0.532	0.527	0.423	0.354	0.606	0.438	0.366	0.485	0.457	0.68	0.777
NFADPYRQLQF [CTNND2_Y503_YF]	0.516	0.494	0.765	0.454	0.473	0.826	0.654	0.539	0.667	0.502	0.436	0.563	0.557	0.555	1.04	0.878
FPKARYRWLVL [APTX_Y214_H215R_YF]	0.533	0.448	0.715	0.494	0.386	0.72	0.534	0.407	0.717	0.371	0.352	0.436	0.534	0.575	0.568	0.909
KGELRYMHSRV [ABCD1_Y281]	0.428	0.396	0.568	0.378	0.303	0.746	0.517	0.377	0.618	0.348	0.375	0.48	0.44	1.27	1.33	1.38
CNNFIYGGCRG [SPINT2_Y163]	0.455	0.361	0.543	0.391	3.89	0.699	0.442	3.35	0.591	0.404	0.371	5.21	0.382	1.24	0.984	1.28
ARGMEYLASQK [FGFR2_Y616]	0.443	0.376	0.576	0.394	0.534	0.657	0.669	0.385	0.563	0.461	0.37	0.398	0.433	0.369	0.755	0.763
HLTNQFMQRVA [PABPC4_Y382_Y382F]	0.576	0.621	0.791	0.673	0.437	0.809	0.898	0.722	0.697	0.35	0.527	0.541	0.631	0.591	0.733	1.16
HNVAIYEGYAL [ACTC1_Y168_P166A]	0.878	15.8	2.26	6.65	15.4	2.5	3.44	12.8	2.17	22.6	19.7	17.1	0.969	2.31	0.838	0.716
KLKRSYCSPDI [USP8_Y717_S718C]	0.415	0.36	0.538	0.459	0.401	0.712	0.534	0.393	0.648	0.37	0.318	0.433	0.534	0.785	0.907	0.931
FSAGTYPRMEE [SYCN_Y108_L111M]	1.12	0.453	0.863	0.365	0.361	0.65	0.501	0.322	0.575	0.467	0.417	0.407	0.547	1.08	0.691	0.869
HILRVYSGVLP [PCNX4_Y999_G1000S]	0.671	0.841	0.968	0.576	1.1	1.22	0.872	1.15	0.867	0.651	0.612	0.745	1.12	1.44	1.26	1.1
PLDGEYFILQI [TP53_Y327_T329I]	14.5	2.02	4.19	1.22	3.7	2	1.24	1.88	2.88	2.04	0.978	2.88	12.9	0.521	0.794	0.651
SHMVDYQPYRK [TEX37_Y25]	0.47	0.609	0.759	0.575	0.59	0.83	0.91	0.701	0.719	0.402	0.575	0.673	0.505	0.445	0.365	0.735
TLPAFYMGNFS [GLB1_Y552]	0.543	0.645	0.998	0.538	0.627	1.02	0.661	0.565	1.03	0.619	0.625	0.523	0.728	0.624	0.809	0.868
